What follows are substances tested against human Factor XIIa (human) (UniProt P00748).
Sequence of human Factor XIIa (human) (P00748 20-615): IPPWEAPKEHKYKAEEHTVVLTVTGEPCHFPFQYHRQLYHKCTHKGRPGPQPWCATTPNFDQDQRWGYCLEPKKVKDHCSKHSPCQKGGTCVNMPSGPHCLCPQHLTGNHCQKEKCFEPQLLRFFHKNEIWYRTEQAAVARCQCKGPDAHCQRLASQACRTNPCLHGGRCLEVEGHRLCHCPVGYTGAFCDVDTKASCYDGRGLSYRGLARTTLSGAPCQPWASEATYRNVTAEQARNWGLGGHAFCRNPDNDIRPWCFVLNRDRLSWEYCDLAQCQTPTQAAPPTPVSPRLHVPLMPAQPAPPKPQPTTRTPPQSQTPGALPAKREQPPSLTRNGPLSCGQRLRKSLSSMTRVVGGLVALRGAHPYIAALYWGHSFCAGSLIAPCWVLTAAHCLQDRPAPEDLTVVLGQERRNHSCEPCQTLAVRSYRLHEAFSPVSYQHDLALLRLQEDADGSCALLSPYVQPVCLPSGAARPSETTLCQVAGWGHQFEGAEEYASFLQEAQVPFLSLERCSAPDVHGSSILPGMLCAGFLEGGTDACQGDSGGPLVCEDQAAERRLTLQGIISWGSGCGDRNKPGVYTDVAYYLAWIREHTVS

Row | Substance | IC50 of inhibition of FXIIa activity, chromogenic assay (substrate S-2302) [µM]
1 | AaTI_Inf4 C1C3+C5C6+N27G | 0.0114
2 | Inf4_F10P+N12I (domain or fragment) | 0.0228
3 | Inf4_F10P+N12I+V14M (domain or fragment) | 0.0705
4 | Inf4_F10P+V14M (domain or fragment) | 0.0421
5 | Inf4_G25N (domain or fragment) | 0.0541
6 | Inf4_N12I+V14M (domain or fragment) | 0.0079
